According to the DeepSol protein solubility set:

Assay: soluble on expression in E. coli; label from the status in PepcDB or PDB records
For “MTDAALPPLIQQMLQPEFYPHVVEAPVQLYQTHCSYVLLTGPYAYKLKKPVYFGFLDYSTLEKRQHFLQEELRLNQRTAAPLYQQVLAISQAGDRYQFAETEPAAEYVLQMKQFPKGCLFSEQFESGQLDASVMRQLAAVVAEFHTKTWVDDHVRSYGQVAQIRKAFDENYQQTLHYIGGPQTQAQFDTTKAFSDRFFDTKADLFAARLAADKIRECHGDLHLGNLCRWDNQLFLFDCIEFNEPFRFVDTMYDIAFLVMDLDARGRQDLGTAFLNAYAEMSGDWEGLQVLPLYLSRQAYVRAKVTSFLLDDPAIDSDRRQQAFDQAAAYYQLAHAYAQPAQQGELLLLSGLSGSGKSTLGRTIAERQRAIILRSDAVRKHLAGISLLERGGPEIYSPEMSDRTYGRLLYLGLGLAQAGYRVILDAKYDRQAYRGAALTAAQAQQIPIQILHCQASEETLRQRLQARQGDIADATADLLAQQLTAWQDFSEDEQGFVRAIATEKPLTQQLDALGFLEHHHHHH”, the “soluble on expression in E. coli” value was “not soluble”. In the case of “MTDARPRICILGGGFGGLYTALRLGQLSWEGHTPPEIVLVDQRDRFLFAPFLYELVTEEMQTWEIAPPFVELLAESGVIFRQAEVTAIDFDHQKVLLNDQDKGTESLAFDQLVIALGGQTPLPNLPGLKDYGLGFRTLEDAYKLKQKLKSLEQADAEKIRIAIVGGGYSGVELAAKLGDRLGERGRIRIIERGKEILAMSPEFNRQQAQASLSAKGIWVDTETTVTAITATDVTLQFREQEDVIPVDLVLWTVGTTVSPLIRNLALPHNDQGQLRTNAQLQVEGKTNIFALGDGAEGRDASGQLIPTTAQGAFQQTDYCAWNIWANLTGRPLLPCRYQPLGEMLALGTDGAVLSGLGIKLSGPAALLARRLVYLYRFPTWQHQLTVGLNWLTRPLGDWLKNEPSLEHHHHHH”, the “soluble on expression in E. coli” value was “not soluble”. In the case of “MTDDRVEQVLEAARRLVAAFARNDAEAYFAAFSEDASFIFHNWPQPLRSRAAYRKLWERWRREDGFEVLACESSNTCVSLQGDLAIFSHDVATRLRLQGTESLNRERETILFRLEQQEGRWLACHEHLSAMPEYLPSTS”, the “soluble on expression in E. coli” value was “not soluble”. For “MTDDSAVESKQKKSKIRKGHWIPVVAGFLRKDGKILVGQRPENNSLAGQWEFPGGKIENGETPEEALARELNEELGIEAEVGELKLACTHSYGDVGILILFYEILYWKGEPRAKHHMMLEWIHPEELKHRNIPEANRKILHKIYKALGLEWRK”, the “soluble on expression in E. coli” value was “soluble”. For “MTDEVILANATLVLRGETVTGSLHIKGETIAGIDQGAHVPAGAVDCEGDFVSPGLVELHTDNLERHIQPRPKVDWPHAAAILAHDAELAGTGITTVFDAMRVGSIPSGAGRYLQYARNLSRELWQLREASALKISHFLHLRAEVCSETLVEELDEFAPEDRVGLVSLMDHTPGQRQFRDMTKLEAYMKGKHAMSDDTFLQHVSQLKGLRDRYGDRHEIETVKAARRLGSVLASHDDTTAEQVAVSAGHGIRLAEFPTTIEAAEACHAHGIKVIMGAPNLIRGGSHSGNVAAADLAERGLLDILSSDYVPSALLLSAVRLGALWGDMARGMATVTRTPAQAVGLDDRGEIAPGLRADLIRFRMSQDVPALQSVWSRGRRVA”, the “soluble on expression in E. coli” value was “not soluble”. In the case of “MTDQLRLMAVHAHPDDESSKGAATMAKYVSEGVDVLVVTCTGGERGSILNPKLQGDAYIEENIHEVRRKEMDEAREILGVGQEWLGFVDSGLPEGDPLPPLPEGCFALEDVDKAAGELVRKIRSFRPQVITTYDENGGYPHPDHIMTHKITMVAFEGAADTEKYPESEYGTAYQPLKVYYNQGFNRPRTEALHHALLDRGLESPYEDWLKRWSEFERKERTLTTHVPCADFFEIRDKALIAHATQIDPEGGWFRVPMEIQKEVWPTEEYELAKSLVETSLPEDDLFAGIRDNALEHHHHHH”, the “soluble on expression in E. coli” value was “not soluble”. With “MTDTIEAKANMQTVSALPPEETERLGTEIVAALKTVFDPEIPADIYELGLIYKVEIKDDRTVDIDMTLTTPNCPAAAELPTMVENAVASVPGVGVVNVNIVWEPPWTPERMSDEARLVLNMW” the “soluble on expression in E. coli” value was “not soluble”. In the case of “MTDVIKPDYLEYDDLLDRDEMFTILEEYFMYRGLLGLRIKYGRLFNEIKKFDNDAEEQFGTIEELKQKLRLNSEEGADNFIDYIKVQKQDIVKLTVYDCISMIGLCACVVDVWRNEKLFSRWKYCLRAIKLFINDHMLDKIKSILQNRLVYVEMSKHHHHHH”, the “soluble on expression in E. coli” value was “soluble”. In the case of “MTDVLPTIELFDGIAEELDNVSLRRDRQSGTRNVLLRFRALKALDRFNSFRSRFSKAIRLTDSEGAIELWPDSSKLVFGGDDGDELDRVEFVVPIDNEDHWQRFMRFMERYAAANDMTYGDRQALEHHHHHH”, the “soluble on expression in E. coli” value was “soluble”. For “MTEAEILRLIRRVSGISQQADEQTTQPDSVTAENYARVVAEVMRRDGIQLNDADMRDIRIRVLEMLAYNRRVELYREKEKITYHWKKPERLRR”, the “soluble on expression in E. coli” value was “not soluble”. For “MTEEFNESMINDIKEGDKVTGEVQQVEDKQVVVHINGGKFNGIIPISQLSTHHIENPSEVVKVGDEVEAYVTKIEFDEENDTGAYILSKRQLETEKSYEYLQEKLDNDEVIEAEVTEVVKGGLVVDVGQRGFVPASLISTDFIEDFSVFDGQTIRIKVEELDPENNRVILSRKAVEQLENDAKKASILDSLNEGDVIDGKVARLTNFGAFINIGGVDGLVHVSELSHGTCSNTRRSCVSRLEHHHHHH”, the “soluble on expression in E. coli” value was “soluble”. With “MTEIYEQAKHSLQGEDFSSFNYLFAVNKLLSNPVSYDLGRDLIVRALDSRERFSEHTTILKNMVRKSGLFPYLKKEFTSLTPDDLRVLELYRTPFSDGYVFHSMQFHIFDLLKSGQNVVLSAPTSMGKSAIVDSLLGMGTLKRLVLVVPTVALADETRRRLQERFGDRYQIIHHSSQVCHSDQAVYVLTQERVNERDDIVDIDLFVIDEFYKLAFRQLKSGDIDHQDERVIELNIALSKLLKVSRQFYLTGPFVNSIRGLEKLGYPHTFVSTDFNTVALDVKTFGIKANDDKAKLKALGEIAHACVDATIIYCKSPTVAGLVARELIRLGHGTPTENPHVDWVSEEFDADWDYTVALRNGIGLHFGALPRALQQYTADQFNAGKLRFLLCTSTIIEGVNTIAKNVVIYDNRDGTRSIDKFTHGNIKGRAGRMGVHFVGKIFCLEEIPEDNLNQEVDIPLGIQGIDTPINLLASVQPDHLSEFSQDRFDEVFINDRVSIDLVKKHSYFRVEQFEMLQSMFEMMDDNEFSSLVFHWTPATNFLKTFAKIIARLVPHTFSRNGVPVKPTDVMIAKLAGYLSAESYSEYLKNQIDYARQWISEGEKRTLSIALNNDLKLITNTFGYTLPKVLSLMEDVVKHHAVKRGIRSKVDYTHVKLAFESFHLPPGVNALEEIGIPIQTLHRLVDLLEFSDEADVDELSQYLRDTQDIWSRSIGYVDQMFIRRALGIRRH” the “soluble on expression in E. coli” value was “not soluble”. For “MTEMKILIVTLTYIEKSIIDEIVNNLSSYGLEVDILLDSRKYLPISAFNWERLQYDAEKVLSFLKSIHDFNYDSIIFLADSDGYIDGYNFVFGLTIDNFAIIFLHRLREEFYNRKPDLDLFMKRVVKEVTHEVGHTLGLSHCNTTGCVMNFSNSVEDVDKKQAKFCKNCAHKIEKLSKYLQQKLEHHHHHH”, the “soluble on expression in E. coli” value was “not soluble”. With “MTENIHKHRILILDFGSQYTQLVARRVRELGVYCELWAWDVTEAQIRDFNPSGIILSGGPESTTEENSPRAPQYVFEAGVPVFGVCYGMQTMAMQLGGHVEASNEREFGYAQVEVVNDSALVRGIEDALTADGKPLLDVWMSHGDKVTAIPSDFITVASTESCPFAIMANEEKRFYGVQFHPEVTHTRQGMRMLERFVRDICQCEALWTPAKIIDDAVARIREQVGDDKVILGLSGGVDSSVTAMLLHRAIGKNLTCVFVDNGLLRLNEAEQVLDMFGDHFGLNIVHVPAEDRFLSALAGENDPEAKRKIIGRVFVEVFDEEALKLEDVKWLAQGTIYPDVIESAASATGKAHVIKSHHNVGGLPKEMKMGLVEPLKELFKDEVRKIGLELGLPYDMLYRHPFPGPGLGVRVLGEVKKEYCDLLRRADAIFIEELRKADLYDKVSQAFTVFLPVRSVGVMGDGRKYDWVVSLRAVETIDFMTAHWAHLPYDFLGRVSNRIINEVNGISRVVYDISGKPPATIEWE” the “soluble on expression in E. coli” value was “soluble”. For “MTEPGERRRRTTSTATRERGVRDARDAARRAADALSELIRHHLEGVSAVCRGEDGGWIVNVDVLEVARIPDTTSLLATYEVELDPAGDLLQYRRIARYRRGAQDQLEHHHHHH”, the “soluble on expression in E. coli” value was “not soluble”. In the case of “MTEQTILMGNLNEVAKKAAQWLINRKPIKSIIDWGISFSLWPPHFTTSCCGTEFGAFAAARFDAERYGMLPFSSARQSNILILEGTLSRKMGRAARIVYDQMPEPKYVIALGACILEGGIFWNSYNTVLPSDIGIPVDLYVPGCPIRPEAVARAVLMLQKKIRTQGALKT”, the “soluble on expression in E. coli” value was “not soluble”.
